From PMC12289019
pKd: −log10 of the molar value.

Assays:
[1] = molecular target: adeno-associated virus 6 (AAV6) capsid (adeno-associated virus 6)
[2] = molecular target: adeno-associated virus 2 (AAV2) capsid (adeno-associated virus 2); test: SPR; AAV2 amine-coupled to a CM5 chip (9451 RU); HD5 or HNP1 as analyte; BIAcore X100, 25°C, PBS running buffer; 1:1 binding model for KD; stoichiometry by GraphPad Prism; 2 replicates; paper speaks of avidity
[3] = molecular target: adeno-associated virus 2 (AAV2) capsid (adeno-associated virus 2)
[4] = molecular target: adeno-associated virus 2 (AAV2) capsid (adeno-associated virus 2); remark: listed apart in the source

Substance	IC50 of inhibition of AAV6 binding to HeLa cells in the cold (qPCR of bound genomes); inhibition incomplete [1]	pKd [2]	stoichiometry N (molecules per capsid) [2]	IC50 of inhibition of AAV2 binding to HeLa cells in the cold (qPCR of bound genomes) [3]	IC50 of inhibition of AAV2 infection of HeLa cells (GFP), defensin added post-attachment [3]	IC50 of inhibition of AAV2 infection of HeLa cells (GFP), defensin incubated with virus pre-attachment [4]
human defensin 5 (HD5) (peptide)	41.6 µM	6.24	385	9.2 µM	4.4 µM	–
human neutrophil peptide 1 (HNP1)	–	6.49	227	–	6 µM	9.7 µM
